{
  "source": "paper PMC3796022",
  "about": "(Biochemistry, 2013)",
  "binders": {"B1": {"name": "recombinant human αB-crystallin (natural protein, UniProt P02511 1-175, looked up)", "chain": "MDIAIHHPWIRRPFFPFHSPSRLFDQFFGEHLLESDLFPTSTSLSPFYLRPPSFLRAPSWFDTGLSEMRLEKDRFSVNLDVKHFSPEELKVKVLGDVIEVHGKHEERQDEHGFISREFHRKYRIPADVDPLTITSSLSSDGVLTVNGPRKQVSGPERTIPITREEKPAVTAAPKK"}},
  "key": {"[1]": {"molecular_target": "B1", "assay": "cross-linking"}, "cross-linking": {"molecular_target": "the molecule itself", "assay": "cross-linking"}, "αA66-80 peptide": {"molecular_target": "T1, αA66-80 peptide (human)", "T1 peptide": "SDRDKFVIFLDVKHF", "assay": "bis-ANS fluorescence"}},
  "data": [
    {"binder": "SDRDKFVIFLDVKHFK (biotin on the added C-terminal lysine (SDRDKFVIFLDVKHFK-Biotin))", "note": "[C-terminal biotinylated αA66-80]", "values": [
      {"measurement": "binding result", "setting": "[1]", "value": "binds"}
    ]},
    {"binder": "B1", "values": [
      {"measurement": "binding result", "setting": "cross-linking", "value": "binds"}
    ]},
    {"binder": "EEKPAVTAAPK", "note": "[αB-crystallin C-terminal peptide 164–174]", "values": [
      {"measurement": "binding result", "setting": "αA66-80 peptide", "value": "binds"}
    ]}
  ]
}
